This note sets out measurements from WO2022025129A1 (dated 2022).

The target in assay [1] is HBs antigen of genotype C HBV (infectious virus) (Hepatitis B virus (HBV) genotype C). Description: cell-based or functional assay.
The target in assay [2] is T1, human insulin (Fujifilm Wako Pure Chemical) (human, UniProt P01308 25-54; P01308 90-110).
T1 construct: also called human-derived component
Put plainly: ELISA, human insulin coated on the plate, anti-human IgG-HRP.

T1 sequence (P01308 25-54 limits assumed, chain 1 of 2): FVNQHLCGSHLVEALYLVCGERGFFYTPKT
T1 sequence (P01308 90-110 limits assumed, chain 2 of 2): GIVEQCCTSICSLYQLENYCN

B1: 5A4 antibody (recombinant human anti-HBs monoclonal antibody) (antibody, V domains shown)
VH: QVQLQESGPGLVKPSDTLSLTCTVSGGSISGHYWSWIRRLPGGGLEWIGYIHYSGITNYNPSLKSRVTMSVDMSKNQFSLRLRSVTATDTAVYYCARGDATYGYWGQGAPVTVSS
VL: AAAMTQSPFTLPVTPGEPASISCRSSQSLLHRNGYNYVNWYLRKPGQSPQLLISLGSDRASGVPDRFRGSGAGTDFTLKISRVEAEDVGVYYCMQALRTPWTFGQGTKVEIKR
notes: also called 5A4 clone
For B1, the “neutralization activity against commercially available HBIG (reduction of HBe antigen, PXB cells)” value in assay [1] was ≥ 10 fold against commercially available HBIG. Also, the binding result in assay [2] is “no binding (tested: 特異抗原であるHBsへの結合が飽和する濃度の10倍以上の抗体濃度)”.

B2: 3B6 antibody (recombinant human anti-HBs monoclonal antibody) (antibody, V domains shown)
VH: EVQLVESGGGVVQPGKSLRVSCAASGFSFSNYGMHWVRQAPGKGLEWVSVIWRDGSHQYYADSVKGRFTVSRDNARDTLFLQMDGLRAEDTAVYYCAREDPAIVLPVLDHWGRGTLVTVSS
VL: AAAMTQSPVSLSASVGDRVTITCRASQRINSYLNWYQQKPGKAPKLLIYGASNLPSGVPSRFSGSGSGTYFTLTISSLQPEDLATYYCQQGYSTPLLSFGPGTKVEIKR
notes: also called 3B6 clone
In the case of B2, in assay [1], the “neutralization activity against commercially available HBIG (reduction of HBe antigen, PXB cells)” value was ≥ 10 fold against commercially available HBIG. Besides, in assay [2], the binding result was “no binding (tested: 特異抗原であるHBsへの結合が飽和する濃度の10倍以上の抗体濃度)”.

B3: M2-11 antibody (recombinant human anti-HBs monoclonal antibody) (antibody, V domains shown)
VH: QVQLVESGGGLVKPGESLRLSCAASGFMFSGHSMVWVRQAPGKGLEWVSFIGSTGEFISYADSVRGRFTISRDNAKNSLYLQMNSLRADDTAVYYCAREQGTRGRYYYYGLDVWGQGTTVTVSS
VL: AAAMTQTPPSLSLSPGESATLSCRASQSVSTYLAWYQQKPGQAPRLLIYDAFNRATGIPARFSGSGSGTDFTLTISGLEPEDFAVYYCQQRGHWPLTFGGGTKVEIKR
notes: also called M2-11 clone
Turning to B3, the “neutralization activity against commercially available HBIG (reduction of HBe antigen, PXB cells)” value in assay [1] is ≥ 10 fold against commercially available HBIG. Besides, the binding result in assay [2] was “no binding (tested: 特異抗原であるHBsへの結合が飽和する濃度の10倍以上の抗体濃度)”.
